Reference: article PMC11484861 (Nature Communications, 2024)
pKd: −log10 of the molar value.

Biological target: GFP-PDPK1 (human (cloned from HEK293T cells)) (UniProt O15530)
Assay: MST

GFP-PDPK1 (human (cloned from HEK293T cells)), sequence (O15530 whole entry): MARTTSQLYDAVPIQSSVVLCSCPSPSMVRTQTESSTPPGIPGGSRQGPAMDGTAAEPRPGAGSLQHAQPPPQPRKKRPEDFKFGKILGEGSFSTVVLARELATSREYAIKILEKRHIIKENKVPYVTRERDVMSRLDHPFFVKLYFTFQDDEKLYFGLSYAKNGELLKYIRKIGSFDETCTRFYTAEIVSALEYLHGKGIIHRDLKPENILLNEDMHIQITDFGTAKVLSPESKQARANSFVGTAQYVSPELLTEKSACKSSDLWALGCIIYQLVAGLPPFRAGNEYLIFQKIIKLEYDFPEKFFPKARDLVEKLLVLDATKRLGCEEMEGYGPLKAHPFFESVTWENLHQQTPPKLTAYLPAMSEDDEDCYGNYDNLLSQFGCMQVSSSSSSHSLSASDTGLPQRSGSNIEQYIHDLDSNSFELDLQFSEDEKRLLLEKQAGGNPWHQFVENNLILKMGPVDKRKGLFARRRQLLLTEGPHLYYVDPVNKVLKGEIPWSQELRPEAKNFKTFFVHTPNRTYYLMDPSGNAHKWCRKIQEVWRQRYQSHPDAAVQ

## unlabeled MΔβ3-5 (MST ligand) (from UniProt P0DTC5 1-222) (domain or fragment)
  pKd: 4.42
